Assay results reported in patent US20190100594A1 (INHIBRX, published 2019).

How the values were obtained:
[1] = target: T1, GITR expressed on CHO cells (Homo sapiens (Human), UniProt Q9Y5U5 26-241); test: flow cytometry on GITR-expressing CHO cells, MFI-FL4
T1 construct: also called glucocorticoid-induced TNFR-related protein; TNFRSF18
T1 sequence: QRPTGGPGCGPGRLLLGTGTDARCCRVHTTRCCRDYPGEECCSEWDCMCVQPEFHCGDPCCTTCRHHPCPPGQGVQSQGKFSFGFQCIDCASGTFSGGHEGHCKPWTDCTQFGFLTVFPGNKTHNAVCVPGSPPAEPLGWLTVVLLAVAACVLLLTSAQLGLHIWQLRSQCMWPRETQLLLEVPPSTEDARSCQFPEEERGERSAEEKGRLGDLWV

[2] = target: T1, GITR expressed on CHO cells; test: flow cytometry competition on GITR-expressing CHO cells; blocked ligand recombinant GITRL; readout GITRL bound, MFI-FL1
Excerpt: Briefly, in these studies, a flow cytometry assay using GITR expressing CHO cells and recombinant GITRL was used to implement to assess blocking capacity. The GITR antibody, TRX-518, was used as a control for these studies.

cyno GITR-CHO = target: T2, cyno GITR-CHO (cynomolgus monkey); test: flow cytometry on cyno GITR-CHO cells
T2 construct: expressed on the surface of CHO cells, construct not described; also called cynomolgus GITR expressed on the surface of CHO cells

human GITR-CHO [3] = target: T3, human GITR-CHO (human, UniProt Q9Y5U5); test: flow cytometry on human GITR-CHO cells
T3 construct: expressed on the surface of CHO cells, construct not described; also called human GITR expressed on the surface of CHO cells
T3 sequence (looked up): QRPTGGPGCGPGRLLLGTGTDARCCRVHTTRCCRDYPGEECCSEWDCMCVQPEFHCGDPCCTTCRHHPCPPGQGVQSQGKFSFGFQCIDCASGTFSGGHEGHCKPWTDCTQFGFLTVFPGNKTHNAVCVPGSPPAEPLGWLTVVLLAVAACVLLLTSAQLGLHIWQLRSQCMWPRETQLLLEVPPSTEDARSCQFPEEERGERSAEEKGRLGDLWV

human GITR-CHO [4] = target: T3, human GITR-CHO; test: flow cytometry on human GITR-CHO cells; remark: listed apart in the source

Binder | EC50 (read off the curve) [1] | IC50 (read off the curve) [2] | further results
C06 (VHH, not shown: a dimerising Fc or GST; small tags and cut ends) VHH: QVQLQESGGGLVQAGGSLRLSCAASGSVFSIDAMGWYRLAPGQQRELVAVLNGISSAKYADSVKGRFTISGDSAKNAVYLQMDGLKPEDTAVYYCYADVSTGWGRDAHGYWGQGTQVTVSS | ~3 nM | ~2 nM | 
2A1 (VHH, not shown: a dimerising Fc or GST; small tags and cut ends) VHH: EVQLVQSGGGLVQPGGSLRLSCAASGNIFSIDAMGWYRQAPGRQRELVAQIPGGPTDSVKGRFTVSGNSAKNTGYLQMNTLKPEDTAVYYCNIVASTSWGSPSKVYWGQGTQATVSS | ~10 nM | ~10 nM | 
F05 (VHH, not shown: a dimerising Fc or GST; small tags and cut ends) VHH: QVQLVQSGGGLVQAGGSLRLSCTASGSIFSINHMAWYRQAPGKQREMVAHITGGASTKYADSVKGRFTISRDSALNTVSLRMNSLKPEDTAVYYCNAEVNEGWNADYYDVWGQGTQVTVSS | ~4 nM | ~4 nM | 
hzCC04v5 (VHH, also called hzC04v5) VHH: EVQLLESGGGEVQPGGSLRLSCAASGFTFSTHGMDWFRQAPGKDLEWVSAIQSGGSWTSYASSVKGRFTISRDNAKNTLYLQMSSLRAEDTAVYWCQNRVTRGQGTLVTV |  |  | EC50 (read off the curve) (cyno GITR-CHO): ~2 nM; EC50 (read off the curve) (human GITR-CHO [3]): ~3 nM
hzCC04v1 (VHH, sheet prints hzCC04v1; also called hzC04v1) VHH: EVQLLESGGGEVQPGGSLRLSCAASGFTFSTHGMDWFRQAPGKDLEWVSAINNGGSWTSYASSVKGRFTISRDNAKNTLYLQMSSLRAEDTAVYWCQNRVTRGQGTLVTV |  |  | binding result (human GITR-CHO [4]): binds
hzCC04v1.2 (VHH, sheet prints hzCC04v1.2; also called hzC04v1.2) VHH: EVQLLESGGGEVQPGGSLRLSCAASGFTFSTHGMDWFRQAPGKDLEWVSAINNGGSWTSYASSVKGRFTISRDNAKNTLYLQMSSLRAEDTAVYYCQNRVTRGQGTLVTV |  |  | binding result (human GITR-CHO [4]): binds
hzCC04v1.2.1 (VHH, also called hzC04v1.2.1) VHH: EVQLLESGGGEVQPGGSLRLSCAASGFTFSTHGMDWFRQAPGKDLEWVSAINQGGSWTSYASSVKGRFTISRDNAKNTLYLQMSSLRAEDTAVYYCQNRVTRGQGTLVTV |  |  | EC50 (read off the curve) (cyno GITR-CHO): ~2 nM; EC50 (read off the curve) (human GITR-CHO [3]): ~2 nM
